Source: publication PMC8584621

Key:
[1] = target: T1, SCO3932 (GntR-like, HutC subfamily) (Streptomyces coelicolor A3(2) M145) (UniProt Q9X9T6); test: DMS footprinting; conditions: EMSA: 10 mM Tris-HCl pH 7.5, 50 mM KCl, 1 mM DTT, herring sperm DNA 100 ng, DTT/Tween20, 0.03 pmol probe in 16 uL, 20 min room temperature; footprint: same …
T1 sequence: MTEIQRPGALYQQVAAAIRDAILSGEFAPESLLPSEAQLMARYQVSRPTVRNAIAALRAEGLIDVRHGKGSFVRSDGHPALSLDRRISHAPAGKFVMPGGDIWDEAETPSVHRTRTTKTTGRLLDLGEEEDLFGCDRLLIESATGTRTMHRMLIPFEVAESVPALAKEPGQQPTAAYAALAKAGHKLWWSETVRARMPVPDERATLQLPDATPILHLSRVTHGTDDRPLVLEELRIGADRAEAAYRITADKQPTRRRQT

[2] = target: T1, SCO3932 (GntR-like, HutC subfamily) (Streptomyces coelicolor A3(2) M145); test: DNase I footprinting; conditions: EMSA: 10 mM Tris-HCl pH 7.5, 50 mM KCl, 1 mM DTT, herring sperm DNA 100 ng, DTT/Tween20, 0.03 pmol probe in 16 uL, 20 min room temperature; footprint: same …
[3] = tested on: SCO3932 (GntR-like, HutC subfamily) (Streptomyces coelicolor A3(2) M145); test: EMSA; conditions: EMSA: 10 mM Tris-HCl pH 7.5, 50 mM KCl, 1 mM DTT, herring sperm DNA 100 ng, DTT/Tween20, 0.03 pmol probe in 16 uL, 20 min room temperature; footprint: same …
[4] = tested on: SCO3932 (GntR-like, HutC subfamily) (Streptomyces coelicolor A3(2) M145); test: DNase I footprinting; conditions: protein concentration giving protection, EMSA: 10 mM Tris-HCl pH 7.5, 50 mM KCl, 1 mM DTT, herring sperm DNA 100 ng, DTT/Tween20, 0.03 pmol probe in 16 uL, 20 min room temperature, footprint: same …

AAGGATCCGAATGGACTGCATTTCTGTGGCCTCCCTGGCCAATCCAGGACGTCCAACCTATTCGGACGTCACTTGTCCTTACGAGTGACAAGCTTGGAGCACTGTACGGCGAGAGCGCAACTACTTATGCTGACGAGTGATGTCGCGCGTGCGACGTGCCTACGACACCAGACCGGAGATGCCGAGATGACGGAGATCCAGAATTCTT (double strand) [p3932/3933 footprint probe]
binding [1]: binds | binding [2]: 100 nM

p3932/3933 EMSA probe
binding [3]: 1.9 nM

p3932/3933 footprint probe
binding ([4]; sites K1, K2): 100 nM

pactII-orf4 EMSA probe
binding [3]: 9.4 nM

pactII-orf4 footprint probe
binding ([4]; sites A1, A2): 800 nM

pcpkA/D EMSA probe
binding [3]: 9.4 nM

pcpkD footprint probe
binding ([4]; site D): 800 nM
